In patent US20190177411:

How the values were obtained:
[1] = target: recombinant Human Pyruvate Dehydrogenase E1-alpha subunit protein (Abcam) (UniProt P08559)
[2] = test system: purified recombinant His-tagged PDK1 (Abcam)
purified recombinant His-tagged PDK1 (Abcam), sequence (chain, as listed by the source): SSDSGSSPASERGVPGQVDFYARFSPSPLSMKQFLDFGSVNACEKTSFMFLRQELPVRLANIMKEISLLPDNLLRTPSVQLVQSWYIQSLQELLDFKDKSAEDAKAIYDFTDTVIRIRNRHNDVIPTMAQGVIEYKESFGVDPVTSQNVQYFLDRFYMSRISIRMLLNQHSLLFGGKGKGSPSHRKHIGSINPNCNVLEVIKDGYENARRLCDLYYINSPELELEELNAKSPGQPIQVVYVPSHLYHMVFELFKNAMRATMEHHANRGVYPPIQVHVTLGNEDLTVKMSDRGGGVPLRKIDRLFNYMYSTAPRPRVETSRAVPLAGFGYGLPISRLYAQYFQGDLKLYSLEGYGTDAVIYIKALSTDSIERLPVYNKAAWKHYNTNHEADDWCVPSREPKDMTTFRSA

recombinant Human Pyruvate Dehydrogenase E1-alpha subunit protein (Abcam), sequence (P08559 30-390): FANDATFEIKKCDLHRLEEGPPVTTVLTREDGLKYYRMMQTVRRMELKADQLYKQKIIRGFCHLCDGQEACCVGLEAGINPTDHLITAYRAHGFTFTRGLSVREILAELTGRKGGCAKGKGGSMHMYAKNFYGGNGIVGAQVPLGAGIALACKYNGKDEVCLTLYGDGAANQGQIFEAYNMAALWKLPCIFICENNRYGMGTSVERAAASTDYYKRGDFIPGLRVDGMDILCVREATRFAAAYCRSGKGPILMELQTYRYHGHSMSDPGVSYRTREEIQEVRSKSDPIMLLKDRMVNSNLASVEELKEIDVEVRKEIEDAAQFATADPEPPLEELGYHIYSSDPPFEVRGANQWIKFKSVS
purified recombinant His-tagged PDK4 (Abcam), sequence (chain, as listed by the source): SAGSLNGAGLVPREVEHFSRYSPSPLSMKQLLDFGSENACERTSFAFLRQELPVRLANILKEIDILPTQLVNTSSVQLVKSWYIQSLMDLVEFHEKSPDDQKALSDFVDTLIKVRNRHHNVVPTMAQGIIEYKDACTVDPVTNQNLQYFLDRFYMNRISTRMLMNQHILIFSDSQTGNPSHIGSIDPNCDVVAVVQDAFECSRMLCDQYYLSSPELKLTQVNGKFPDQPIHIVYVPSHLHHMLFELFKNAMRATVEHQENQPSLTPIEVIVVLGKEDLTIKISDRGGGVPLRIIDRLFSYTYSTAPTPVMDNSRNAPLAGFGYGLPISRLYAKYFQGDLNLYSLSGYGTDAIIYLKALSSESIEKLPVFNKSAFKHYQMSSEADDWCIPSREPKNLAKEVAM
Flag-tagged T346A PDK1 mutant, sequence (chain, as listed by the source T346A): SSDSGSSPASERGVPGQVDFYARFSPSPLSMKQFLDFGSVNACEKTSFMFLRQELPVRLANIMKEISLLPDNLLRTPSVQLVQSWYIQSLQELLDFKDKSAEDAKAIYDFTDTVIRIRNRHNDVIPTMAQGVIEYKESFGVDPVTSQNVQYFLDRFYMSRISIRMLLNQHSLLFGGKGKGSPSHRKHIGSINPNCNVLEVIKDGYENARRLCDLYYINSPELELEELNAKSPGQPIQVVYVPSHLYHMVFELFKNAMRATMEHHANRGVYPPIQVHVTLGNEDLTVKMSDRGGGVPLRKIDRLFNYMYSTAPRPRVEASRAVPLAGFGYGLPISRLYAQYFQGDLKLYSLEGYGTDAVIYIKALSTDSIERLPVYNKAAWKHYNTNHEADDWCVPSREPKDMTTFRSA

Question: For Flag-tagged T346A PDK1 mutant, which “PDHE1 phosphorylation by Flag immune complexes mixed with recombinant Akt2 and PDHE1, Western blotting” value [1] is on record?
Answer: T346A PDK1 mutant was ineffective

Question: “purified recombinant His-tagged PDK4 (Abcam)” was tested. Which “PDHE1 phosphorylation in a kinase assay with active Akt2, Western blotting” value [1] did it give?
Answer: increased PDHE1 phosphorylation was detected only in the presence of Akt2 and PDK1, but not PDK2, PDK3 or PDK4

Question: How did the “PDHE1 phosphorylation in a kinase assay with recombinant proteins, Western blotting” value [1] turn out when “purified recombinant His-tagged PDK1 (Abcam)” was run?
Answer: active Akt2 increased PDK1 phosphorylation of PDHE1

Question: With “purified recombinant His-tagged PDK2 (Abcam)” as the substance, how does the “PDHE1 phosphorylation in a kinase assay with active Akt2, Western blotting” value [1] read?
Answer: increased PDHE1 phosphorylation was detected only in the presence of Akt2 and PDK1, but not PDK2, PDK3 or PDK4

Question: With kinase active Akt1 (SignalChem) as the substance, how does the “phosphorylation in a kinase assay, Western blotting with Akt cons Ab” value [2] read?
Answer: active Akt1 or Akt2 readily phosphorylated PDK1

Question: And the “phosphorylation site by LC-MS/MS of chymotrypsin digests after a kinase assay” value [2]?
Answer: Thr346 (T346) was identified ... as the sole phospho-amino acid modified by Akt1 or Akt2, compared to control

Question: For “purified recombinant His-tagged PDK3 (Abcam)”, which “PDHE1 phosphorylation in a kinase assay with active Akt2, Western blotting” value [1] is on record?
Answer: increased PDHE1 phosphorylation was detected only in the presence of Akt2 and PDK1, but not PDK2, PDK3 or PDK4

Question: Which “PDHE1 phosphorylation by Flag immune complexes mixed with recombinant Akt2 and PDHE1, Western blotting” value [1] does the source give for “Flag-tagged wild type (WT) PDK1 phosphorylated on T346 (by active Akt2 in a kinase assay, or as precipitated from hypoxic PC3 cells)” here?
Answer: WT PDK1 phosphorylated PDHE1 in the presence of Akt2
